Measurements reported in the nanobody polyreactivity screen of Harvey et al. (2022).

Assay: yeast display, Sf9 membrane polyspecificity reagent, FACS + sequencing; frameworks hold sequencing errors
Procedure, shortened: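 In a synthetic yeast display library (Saccharomyces cerevisiae BJ5465), nanobody expression was induced with galactose for 36–48 hours. FACS gates were set low and high (top ~1%) using anti-HA fluorescence for expression and streptavidin fluorescence for binding of the Sf9 membrane reagent. Each polyreactivity label is drawn from the gate of origin.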

Sequence | polyreactivity (PSR sort gate)
QVQLQESGGGQVQAGGSLRLSCAASGYISTHYFMGWYRQAPGKDREFVAGISNGSITNYADSVKGRFTISRDNARNTVYLQMNSLKPEDTEVYYGAAYEWTYVRFGYWGQGTQVTVSG | high polyreactivity
QVQRVDSGGGLRQAGGSLRLTCSASGSIFGLYAMGWYRQATGKERELVASISKSGGSTYYADCVKGRFTISRDNAKNTVYLQMNRLKPEDTAVYYCAARQYPRAGFDYWGQGTQVPVSS | high polyreactivity
QVQLVESGGGLVQAGGSLRLSCAASGSIFGTNVMGWYRQAPGKERELVAAITASGSRTYYADSVKGRFTISRDNAKNTVYLQMNSLKPEDTAVYYCATVSRFGFKDFDYWGQGTQVTVSS | high polyreactivity
QVQLVESGGGLVQAGGSLRLSCAASGRIFPYKAMGWYRPAPGKERELVAAITSSGGSTYYADSVKGRFTISRDNAKNTVYLQMNSLKPEDTAVYYCNKDIERYVRIYDSWGQGTQVTVSS | low polyreactivity
QVQLVESGGGLVQAGGSLRLRCAASGRIFRLYAMGWYRQAPGKERELVAAIRSSGGSTYADSVKGRFTISRDNAKNTVYLHMNSLKPEDTAVYYCAARWGRLPEQYRYDYWGQGTQVTVSS | high polyreactivity
QVQLVESGGGLVQAGGSLRLSCAASGFTFNKYAMGWYRQAPGTERELVAAISSRGGSPYYADSVKGRFTISRDNAKNTVYLQMNSLKPEDTAVYYCAVYTIGYLAWYQKFDYWGQGTQVTVSS | high polyreactivity
QVQLVESGGGLVQAGGSLRLICAASGITYRYAMGWYRQAPGKERELVAAITSSGASTYYADSVKGRFTISRDNAKNTVYLQMNSLKPEDTAVYYCATPLRKVYGGYVYWGQGTQVTVSS | low polyreactivity
QVQLVESGGGLVQAGGSLRLSCAASGRIFWTNAMGWYRQAPGKERELVAAISRSGGSTYYADSVKGRFTISRDNAKNTVYLQMNSLKPEDTAVYYCAARAGRRPYDYWGQGTQVTVSS | high polyreactivity
QVQLVESGGGFVQAGGSLRISCAASGSTIGGNGKGWYRQAPGKEREIVATITWPSGSTYYADSVKGRFTISRDNAKNTVYLQMKSLKPEDTAVYYCAKNTSSRRNPWYYYWGQGTQVTVSS | high polyreactivity
QVQLVESGGGLVQAGGSLRLSCAASGRTLGRYAMGWYRPAPGKERELVAAITRRGGITYYADSVKGRFTISRDNAKNTVYLQMNSLKPEDTAVYYCNAVNKSLQPVRDVYPLYRHDYWGQGTQVTVSS | high polyreactivity
QVQLVESGGGLVQAGGSLRLSCAASGFIFRYFAMGWYRQAPGKERELVAAISRSGGSTYYADSVKGRFTISRDNAKNTVYLQMNSLKPEDTAVYYCAAKDGRSYYDLSPMDYWGQGSQVTVSS | low polyreactivity
QVQLQESGGGLVQAGGSLRLSCAASGSISSPQFMGWYRQAPGIERELVATIANGGITYYADGVKGRFTISRDNAKNTVYLQMNSLKPEDTAVYYCNARSQGWYNTFYYWGQGTQVTVSS | low polyreactivity
QVQLVESGAGLVQAGGSLRLSCAPSGSTFGDNAMGWYRQAPGKERELVAAISSGGGSTYYADSVKGRFTISRDNAKNTVYLQMNSLKPEDTAVYYCAADGTLTLYRYILDYWGQGTQVTVSS | low polyreactivity
QVQLVESGGGLVQAGGSLRLSCAASGSIFTFYTMGWYRQAPGKERELVAAISQTGGRTYYADSVKGRFTISRDTAKNTVYLQMNSLKPEDTAVYYCDADYYYDISDWVYEYYYWGQGTQVTVSS | high polyreactivity
QVQLVESGGGLVQAGGILRLSCAASGRIFLTYAMGWYRQAPGKERELVAAIRSRSGTTYYADSVKGRFTISRDNAKNTVYLQMNSMKPEDTAVYYCAAGGKSRSYYWGQGTQVTVSS | high polyreactivity
QVQLVESGGGLVQAGGSLRLSCSASGRTFRKYAMGWYRQPPGKESELVAAISWSGGSTYYANSVKGRFTISRDNAKNTVYLQMNSLKPEDTAVYYCAAVPVHTGSLYWGFTTGYDYWGQGTQVTVSS | low polyreactivity
QVQLVESGGGLVQAGGSLRLSCAASGPIFATNAMGWYRQAPGKERELVASISSGGGSTYYADSVKGRFTISRDNAKNTVYLQMNSLKPEDTAVYYCAADYYTGYVWEDYYWGQGTQVTVSS | low polyreactivity
QVQLVESGGGLVQAGGSLRLSCAASGSIFWRNAMGWYRQAQGKEREFVATITWSGDSTYYADSVKGRFTISRDNAKNTVYLQMNSLKPEDTAVYYCATDWRNWGYDSWGQGTQVTVSS | low polyreactivity
QVQLVDSGGGLGQVGGSRRVSCAASGRTFWWYPMGWYRQSPGKERELVAAISRGSTNYADSVKGRFAISRDNAKNTVYLQMNSQKPEDTAVYYCAAYVVWLYGYDYGGQGTQVTVSS | low polyreactivity
QVQLVESGGGLVQAGGSLRLSCASSGIIFYPNAMGWYRQAPAKERELVAAITSDGSTYYADSVKGRFTISRDNAMNTVYLQMNRLKPEDTAVYYCAAWEDYGYDYWGQGTQVTVSS | low polyreactivity
QVQHVESGGGLVQAGGSLRLSCAASGGTFRPYARGWSIQAPGKERELVAAISYTGSTYYADSVKGRFTISRDNAKYTVYLQMNSLKPEDTAVYYCAKDFWYPPRFDYWGQGTQVTVSS | low polyreactivity
QVQLVESGGGLVQAGGSLRLSCAASGRIFGDNAMGWYRQAPGKERELVAAITSGGNTYYADSVKGRFTISRDNAKNTVYLQMNSLKPEDTAVYYCNVADWRRWGYDYWGQGTQVTVSS | low polyreactivity

Sequence | polyreactivity (PSR sort gate)
QVQLVESGGGLVQAGGSLRLSCAASGFTFVSYAMGWYRQAPGKERELVAAISRSGGRTYYADSVKGRFTISRDNAKNTVYLQMNSLKPEDSAVYYCAKAYRPFYSRVQDYDYWGQGTQVTVSS | high polyreactivity
QVQLVESGGGLVQAGGSLRLSCAASGRIFKWYAMGWYRQAPGKERELVAAITSGGGSTYYADSVKGRFTISRDNAKNTVYLQMNSLKPEDTAVYYCAVKGYRRWGYDYWGQGTQVTVSS | high polyreactivity
QVQLVESGGGLVQAGGSLRLSCAASGRTFWVYAMGWYRQAPGKERELVAAISRSGVSTYYADSVKGRFTISRDNAKNTVYLQMNSLKPEDTAVYYCAAPLIYTPLKYHYWGQGTQVTVSS | low polyreactivity
QVQPQESGGGPVQACGSLRLSCAASGNILDADILGWYRLVPAKERELVASITDGGSTNYAESVKGRFTISRDNAKNTVYLQMNSLKPEDTAVYYCARRHRVFPSRIGHDYWGQGSQVTVSS | low polyreactivity
QVQLVESGGGLVQAGGSLRLSCAASGSIFYDYAMGCYRQAPGKERELVDRISSGGSTYYADSVKGRFTISRDNAKNTVYLQMNSLKPEDSAVYYCNAGVEFAASLYYSDNYDYWGQGTQVTVSS | low polyreactivity
QVQLVESGGGLVQAGGSLRLSCAASGSTFNSYTMGWSRQAPGEERELVAAITWSGGRTYYADSVKGRFTISRDNAKNTVYLQMNSLKPEATAVYYCAKDRVGEMYYWGQGTQVTVSS | low polyreactivity
QVQLVESGGGLVQAGGSLRLSCAASGGTFRNNAMGWYRQAPGKERELVAAISWSGGRTYYADSVKGRFTISRDNAKNTVYLQMNSLKPEDTAVYYCAASYSGRQDRYPHYDYWGQGTQVTVSS | low polyreactivity
QVQLVESGGGLVQAGGSRRLSCAASGCILRDNAMGWYRQAPGKEREVVAAISYSGDLTYYADSVKGRFTISRDNAKNTVYLQMNSLIPEDTAVYDCAALYPKVRGYRSDDLWGQGTQVTVSS | high polyreactivity
QVQLVESGGGLVQAGGSLRLSCAASGSIFDLNAMGWYRQAPGKERELVAAISKSGGSTYYADSVKGRFTISRDNAKNTVYLQMNSLKPEDTAVYYCATSGDRLVWGQGTQVTVSW | low polyreactivity
QVQLVESGGGLVQAGGSLRLSCAASGSILDSNAMGWYRQAPGKERELVAAITSGGSTYYADSVKGRFTISRDNAMNSVYLQMNSLKPEDTAVYYCAAAYLGYGAVQPSYEGGYWGQGTQVTVSS | low polyreactivity
QVQLVESGGGLVQAGGSLRLSCAASGFTFVTYAMGWSSQAPGKERELVATISWGVGGSYYADSVKGRFTISRDNAKNTVYLPMNSLKPEDTAVYYCNARHTWHQTYDYWGQGTQVTVSS | low polyreactivity
QVQLQESGGGVQAGGSLRLSCAASGSISAPILMVWYRQAPGKERELVAGIGGGANTYYADSVKGRFTVSRDNAKYTVYLQMNSLKPEDTAVYYCAAGDYYWTNFGYWGQGTQVTASS | high polyreactivity
QVQLVESGGGLVQAGGSLRLSCAASGRTFNFNTMGWYRQSPGKERELVASITSGGSTNYADSVKGRFTISRDNAKNTVYIQMNILKPEDTAVYYFAVTVSGPYAYDYWGQGTQVTVSS | low polyreactivity
QVQLVESGGGLVQAGGSLRLSCAASGRIFNPYAMGWYRQAPGKERELVAAISWSGSTTYYADSVKGRFTISRDNAKNTVYLQMNSLKPEDTAVYYCAAEVVFFGWNYDYWGQGTQVTVSS | high polyreactivity
QVQLVESGGGLVQAGGSLRLSCAASGSIFPRYAMGWYRQAPGKERELVAAITGSGSSTYYADSVKGRFTISRDNAKNTVYLQMNSLKPEDTAVYYCADRFIWGYWGVGYYYWGQGTQVTVSS | low polyreactivity
QVQLVESGGGLVQAGGSLRLSCAASGFIFGYNAMGWYRQAPGKERELVAALDSGDSTYYADSVKGRFTLSRDNAKNTVYLQMNSLKPEDTAVYYCATDVTFVYDFGYFQFDYWGQGTQVTVSS | low polyreactivity
QVQLVESGGGLVQAGGSLRLSCAASGRIFWYNAMGWYRQAPAKERELVAGITRSGGRTYYADSVKGRFTISRDNAKNTVYLQMNSLKPEDTAVYYCAAAPYARRDYEYWGQGTQVTVSS | high polyreactivity
QFHLVESGGGLVQAGGSLRLSCAAYGIIFYSYTMGWYRQAPGKERELVAAISRSGGSTYYADSVKGRFTISRDNAKNTVYLQMNSLKPEDTAVYYCAQVGNTAGYDYWGQGSQVTVSS | high polyreactivity
QVQLVESGGGLVQAGGSLRLSCAASGSTYYYNAMGWYRQAPGKERELVAAIRTSGGRTYYADSVKGRFTISRDNAKNTVFLQMMSLKPEDTAVYFCADDGTDVHYTYDYWGQGTLVTVSS | low polyreactivity
QVQLVESGGGLVQAGGSLRLSCAASGVTFVDYAMGWYRQAPGKERELVAAITVSGDSTYYADSVKGRFTLSRDNAKNTVYLQMNSLKPEDTAVYYCAADPGYYDGGYWGQGTQVTVSS | low polyreactivity
QGQLVESGGGLVQAGGILLLSCAASGIIFLYYAMGWYRQAPGKERELVAAITSGGSTYYADSVKGRFTISRDNAKNTVYLQMNSLKPEDTAVYYCNAPYHGREYEWGQGTQVTVSS | high polyreactivity
